Assay results published in paper PMC2234240 (The Journal of Cell Biology, 2008).

Biological target: T1, GST-Rsa1p (yeast (S. cerevisiae), UniProt Q08932 1-381)
T1 sequence: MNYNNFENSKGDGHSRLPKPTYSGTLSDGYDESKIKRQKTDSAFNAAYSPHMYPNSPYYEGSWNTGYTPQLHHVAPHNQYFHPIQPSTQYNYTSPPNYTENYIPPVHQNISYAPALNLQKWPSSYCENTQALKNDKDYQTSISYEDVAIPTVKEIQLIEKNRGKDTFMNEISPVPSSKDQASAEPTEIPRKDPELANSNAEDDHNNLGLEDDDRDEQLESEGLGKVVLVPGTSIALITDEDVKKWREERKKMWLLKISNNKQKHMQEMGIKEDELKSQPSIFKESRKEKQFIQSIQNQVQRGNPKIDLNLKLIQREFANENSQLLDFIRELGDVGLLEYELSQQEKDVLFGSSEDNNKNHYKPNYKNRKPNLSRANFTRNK
Assay: pull-down

B1: recombinant Snu13p (natural protein)
chain: MSAPNPKAFPLADAALTQQILDVVQQAANLRQLKKGANEATKTLNRGISEFIIMAADCEPIEILLHLPLLCEDKNVPYVFVPSRVALGRACGVSRPVIAASITTNDASAIKTQIYAVKDKIETLLI
B1: binds.
